In test [1] the target is T1, Mouse Id2: Histidine (mouse, UniProt P41136 1-134, limits assumed).
T1 construct: E. coli fusion protein (vector pGW07); also called m-Id2: His; not shown: His-tag
T1 sequence (looked up): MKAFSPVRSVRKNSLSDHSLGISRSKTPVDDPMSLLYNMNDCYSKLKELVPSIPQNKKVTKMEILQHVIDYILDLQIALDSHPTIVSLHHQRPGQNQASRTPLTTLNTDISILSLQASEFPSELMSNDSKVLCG
As to the kind of experiment: ELISA, coated antigen, Ab 0.010 ug/ml.

In test [2] the target is T2, Mouse Id3: Histidine (mouse, UniProt P41133 1-119, limits assumed).
T2 construct: E. coli fusion protein (vector pGW07); also called m-Id3: His; not shown: His-tag
T2 sequence (looked up): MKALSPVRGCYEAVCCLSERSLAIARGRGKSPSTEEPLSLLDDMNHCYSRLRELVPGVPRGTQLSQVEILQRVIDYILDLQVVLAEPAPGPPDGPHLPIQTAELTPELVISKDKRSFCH
As to the kind of experiment: ELISA, coated antigen, Ab 0.010 ug/ml. In general terms: ELISA stands for enzyme-linked immunosorbent assay.

Test [3] has as its target T3, Human Id3: Histidine (human, UniProt Q02535 1-119, limits assumed).
T3 construct: E. coli fusion protein (vector pGW07); also called h-Id3: His; not shown: His-tag
T3 sequence (looked up): T2 sequence (looked up) with S31G, S33A, T34A, K112N
As to the kind of experiment: ELISA, coated antigen, Ab 0.010 ug/ml.

Test [4] concerns the target T4, Mouse Id4: Histidine (mouse, UniProt P41139 1-161, limits assumed).
T4 construct: E. coli fusion protein (vector pGW07); also called m-Id4: His; not shown: His-tag
T4 sequence (looked up): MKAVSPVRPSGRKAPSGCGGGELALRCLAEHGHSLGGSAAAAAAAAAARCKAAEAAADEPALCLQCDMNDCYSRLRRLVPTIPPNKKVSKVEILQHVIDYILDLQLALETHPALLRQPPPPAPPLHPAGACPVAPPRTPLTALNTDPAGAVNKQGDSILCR
Briefly: ELISA, coated antigen, Ab 0.250 ug/ml.

Test [5] addresses T1, Mouse Id2: Histidine. As to the kind of experiment: ELISA, coated antigen, Ab 0.250 ug/ml.
Test [6] has as its target T3, Human Id3: Histidine. Briefly: ELISA, coated antigen, Ab 0.250 ug/ml.
In test [7] the target is T5, Mouse Id1: Histidine (mouse, UniProt P20067-2 1-148).
T5 construct: E. coli fusion protein (vector pGW07); also called m-Id1-His; not shown: His-tag
T5 sequence: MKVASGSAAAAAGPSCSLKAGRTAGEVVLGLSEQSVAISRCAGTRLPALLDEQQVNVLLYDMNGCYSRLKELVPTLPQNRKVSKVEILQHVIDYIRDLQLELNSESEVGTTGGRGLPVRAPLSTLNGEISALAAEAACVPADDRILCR
Briefly: ELISA, coated antigen, Ab 0.250 ug/ml.

In test [8] the target is T6, Human Id4: Histidine (human, UniProt P47928 1-161, limits assumed).
T6 construct: E. coli fusion protein (vector pGW07); also called h-Id4: His; not shown: His-tag
T6 sequence (looked up): T4 sequence (looked up) with L125H, A130T, V133A
As to the kind of experiment: ELISA, coated antigen, Ab 0.250 ug/ml.

Test [9] addresses T7, Human Id2: Histidine (human, UniProt Q02363 1-134, limits assumed).
T7 construct: E. coli fusion protein (vector pGW07); also called h-Id2: His; not shown: His-tag
T7 sequence (looked up): T1 sequence (looked up) with T60S, V131A
As to the kind of experiment: ELISA, coated antigen, Ab 0.250 ug/ml.

The target of test [10] is T4, Mouse Id4: Histidine. As to the kind of experiment: ELISA, coated antigen, Ab 0.025 ug/ml.
In test [11] the target is T1, Mouse Id2: Histidine. As to the kind of experiment: ELISA, coated antigen, Ab 0.025 ug/ml.
The target in test [12] is T2, Mouse Id3: Histidine. As to the kind of experiment: ELISA, coated antigen, Ab 0.025 ug/ml.
Test [13] addresses T3, Human Id3: Histidine. As to the kind of experiment: ELISA, coated antigen, Ab 0.025 ug/ml.
In test [14] the target is T5, Mouse Id1: Histidine. Briefly: ELISA, coated antigen, Ab 0.025 ug/ml.
For test [15], the target named is T6, Human Id4: Histidine. Briefly: ELISA, coated antigen, Ab 0.025 ug/ml.
Test [16] has as its target T7, Human Id2: Histidine. Briefly: ELISA, coated antigen, Ab 0.025 ug/ml.
For test [17], the target named is T4, Mouse Id4: Histidine. Briefly: ELISA, coated antigen, Ab 0.050 ug/ml.
The target of test [18] is T1, Mouse Id2: Histidine. As to the kind of experiment: ELISA, coated antigen, Ab 0.050 ug/ml.
Test [19] addresses T2, Mouse Id3: Histidine. Briefly: ELISA, coated antigen, Ab 0.050 ug/ml.
For test [20], the target named is T3, Human Id3: Histidine. As to the kind of experiment: ELISA, coated antigen, Ab 0.050 ug/ml.
Test [21] addresses T5, Mouse Id1: Histidine. As to the kind of experiment: ELISA, coated antigen, Ab 0.050 ug/ml.
Test [22] has as its target T6, Human Id4: Histidine. As to the kind of experiment: ELISA, coated antigen, Ab 0.050 ug/ml.
For test [23], the target named is T7, Human Id2: Histidine. Briefly: ELISA, coated antigen, Ab 0.050 ug/ml.

Residue numbers refer to the chain shown, from its start.

For the substance “rabbit monoclonal anti-mouse/human Id1, clone #BCH-1/#195-14 (antibody)”, the A450 with Mouse Id2: Histidine [1] was 0.048 A450; with Mouse Id3: Histidine [2], 0.047 A450; with Human Id3: Histidine [3] it was 0.048 A450; in the test with Mouse Id4: Histidine [4], 0.048 A450; in the test with Mouse Id2: Histidine [5], 0.053 A450; in the test with Human Id3: Histidine [6] it was 0.052 A450. Moreover, the A450 was determined as 2.57 A450 in the test with Mouse Id1: Histidine [7]; 0.048 A450 with Human Id4: Histidine [8]; 0.057 A450 with Human Id2: Histidine [9]; 0.046 A450 in the test with Mouse Id4: Histidine [10]; 0.049 A450 with Mouse Id2: Histidine [11]; 0.047 A450 in the test with Mouse Id3: Histidine [12]. In addition, the A450 with Human Id3: Histidine [13] was 0.047 A450; with Mouse Id1: Histidine [14], 0.876 A450; with Human Id4: Histidine [15], 0.045 A450; in the test with Human Id2: Histidine [16], 0.05 A450; in the test with Mouse Id4: Histidine [17], 0.049 A450; with Mouse Id2: Histidine [18] it was 0.054 A450. The A450 in the test with Mouse Id3: Histidine [19] turned out to be 0.05 A450; in the test with Human Id3: Histidine [20], 0.047 A450; with Mouse Id1: Histidine [21], 1.39 A450; with Human Id4: Histidine [22], 0.049 A450; in the test with Human Id2: Histidine [23], 0.048 A450.

Take “rabbit monoclonal anti-human Id1, clone #BCH-2/#5-3 (antibody)”: the A450 with Mouse Id2: Histidine [1] is 0.049 A450; with Mouse Id3: Histidine [2], 0.048 A450; with Human Id3: Histidine [3], 0.044 A450; with Mouse Id4: Histidine [4] it was 0.053 A450; in the test with Mouse Id2: Histidine [5], 0.052 A450; in the test with Human Id3: Histidine [6] it was 0.048 A450. Besides, the A450 with Mouse Id1: Histidine [7] amounted to 0.092 A450; with Human Id4: Histidine [8], 0.047 A450; with Human Id2: Histidine [9] it was 0.056 A450; in the test with Mouse Id4: Histidine [10], 0.047 A450; with Mouse Id2: Histidine [11], 0.048 A450; with Mouse Id3: Histidine [12] it was 0.046 A450. Further, the A450 with Human Id3: Histidine [13] is 0.046 A450; with Mouse Id1: Histidine [14] it was 0.053 A450; with Human Id4: Histidine [15], 0.049 A450; in the test with Human Id2: Histidine [16], 0.049 A450; with Mouse Id4: Histidine [17], 0.048 A450; with Mouse Id2: Histidine [18], 0.05 A450. Also, the A450 with Mouse Id3: Histidine [19] was 0.052 A450; with Human Id3: Histidine [20], 0.046 A450; with Mouse Id1: Histidine [21], 0.057 A450; with Human Id4: Histidine [22], 0.052 A450; with Human Id2: Histidine [23], 0.048 A450.

For the origin of these results see patent US20060286609A1 (BIOCHECK, published 2006).
